Experimental findings from IntAct's records for PubMed 35512704 are described below.

B1: Speckle-type POZ protein (Homo sapiens), O43791 (parent)
chain: MSRVPSPPPPAEMSSGPVAESWCYTQIKVVKFSYMWTINNFSFCREEMGEVIKSSTFSSGANDKLKWCLRVNPKGLDEESKDYLSLYLLLVSCPKSEVRAKFKFSILNAKGEETKAMESQRAYRFVQGKDWGFKKFIRRDFLLDEANGLLPDDKLTLFCEVSVVQDSVNISGQNTMNMVKVPECRLADELGGLWENSRFTDCCLCVAGQEFQAHKAILAARSPVFSAMFEHEMEESKKNRVEINDVEPEVFKEMMCFIYTGKAPNLDKMADDLLAAADKYALERLKVMCEDALCSNLSVENAAEILILADLHSADQLKTQAVDFINYHASDVLETSGWKSMVVSHPHLVAEAYRSLASAQCPFLGPPRKRLKQS
partner: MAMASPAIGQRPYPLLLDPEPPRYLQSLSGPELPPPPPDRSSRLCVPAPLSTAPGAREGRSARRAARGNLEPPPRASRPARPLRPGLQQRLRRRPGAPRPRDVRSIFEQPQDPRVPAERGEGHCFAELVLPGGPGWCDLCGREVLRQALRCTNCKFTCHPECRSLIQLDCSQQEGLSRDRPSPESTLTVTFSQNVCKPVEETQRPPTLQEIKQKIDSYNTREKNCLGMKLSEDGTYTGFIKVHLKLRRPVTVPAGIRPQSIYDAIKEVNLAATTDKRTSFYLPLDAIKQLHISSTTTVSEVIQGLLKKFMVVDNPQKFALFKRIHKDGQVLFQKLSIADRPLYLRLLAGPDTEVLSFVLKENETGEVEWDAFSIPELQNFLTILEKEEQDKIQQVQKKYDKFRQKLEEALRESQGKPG
B2: Speckle-type POZ protein (Homo sapiens), O43791 (parent)
chain: B1 chain
partner: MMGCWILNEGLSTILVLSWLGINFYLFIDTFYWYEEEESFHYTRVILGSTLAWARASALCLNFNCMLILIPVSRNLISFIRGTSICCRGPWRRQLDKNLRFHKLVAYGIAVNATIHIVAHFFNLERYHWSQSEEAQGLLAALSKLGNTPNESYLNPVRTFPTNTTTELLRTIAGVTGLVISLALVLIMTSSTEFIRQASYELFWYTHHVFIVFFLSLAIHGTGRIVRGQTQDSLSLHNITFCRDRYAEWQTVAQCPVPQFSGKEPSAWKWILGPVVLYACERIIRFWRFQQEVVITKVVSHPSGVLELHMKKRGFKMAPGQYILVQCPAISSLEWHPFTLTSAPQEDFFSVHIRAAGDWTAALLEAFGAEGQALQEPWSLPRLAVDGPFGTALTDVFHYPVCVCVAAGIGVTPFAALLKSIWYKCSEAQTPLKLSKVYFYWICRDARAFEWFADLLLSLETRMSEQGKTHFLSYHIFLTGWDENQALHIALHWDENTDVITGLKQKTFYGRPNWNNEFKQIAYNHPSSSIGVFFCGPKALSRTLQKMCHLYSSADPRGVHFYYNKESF
B3: Speckle-type POZ protein (Homo sapiens), O43791 (parent)
chain: B1 chain
partner: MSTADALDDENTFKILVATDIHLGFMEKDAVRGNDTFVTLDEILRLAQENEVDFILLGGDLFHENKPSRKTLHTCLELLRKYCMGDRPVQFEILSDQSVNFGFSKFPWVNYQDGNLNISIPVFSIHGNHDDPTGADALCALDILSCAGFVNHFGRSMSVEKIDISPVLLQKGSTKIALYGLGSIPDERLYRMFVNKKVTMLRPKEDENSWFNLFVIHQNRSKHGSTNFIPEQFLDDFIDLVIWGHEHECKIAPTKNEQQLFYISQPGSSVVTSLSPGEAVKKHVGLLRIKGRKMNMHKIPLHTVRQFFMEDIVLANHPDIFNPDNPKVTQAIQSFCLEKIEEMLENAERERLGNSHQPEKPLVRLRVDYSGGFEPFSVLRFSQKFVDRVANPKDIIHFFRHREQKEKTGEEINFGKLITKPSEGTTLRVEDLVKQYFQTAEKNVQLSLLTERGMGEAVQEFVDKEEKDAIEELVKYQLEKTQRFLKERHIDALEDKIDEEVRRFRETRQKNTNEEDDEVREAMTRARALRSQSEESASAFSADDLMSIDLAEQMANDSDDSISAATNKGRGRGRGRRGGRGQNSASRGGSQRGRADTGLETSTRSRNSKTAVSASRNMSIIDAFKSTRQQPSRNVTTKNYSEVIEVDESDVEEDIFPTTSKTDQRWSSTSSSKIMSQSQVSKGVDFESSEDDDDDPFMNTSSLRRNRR
B4: Speckle-type POZ protein (Homo sapiens), O43791 (parent)
chain: B1 chain
partner: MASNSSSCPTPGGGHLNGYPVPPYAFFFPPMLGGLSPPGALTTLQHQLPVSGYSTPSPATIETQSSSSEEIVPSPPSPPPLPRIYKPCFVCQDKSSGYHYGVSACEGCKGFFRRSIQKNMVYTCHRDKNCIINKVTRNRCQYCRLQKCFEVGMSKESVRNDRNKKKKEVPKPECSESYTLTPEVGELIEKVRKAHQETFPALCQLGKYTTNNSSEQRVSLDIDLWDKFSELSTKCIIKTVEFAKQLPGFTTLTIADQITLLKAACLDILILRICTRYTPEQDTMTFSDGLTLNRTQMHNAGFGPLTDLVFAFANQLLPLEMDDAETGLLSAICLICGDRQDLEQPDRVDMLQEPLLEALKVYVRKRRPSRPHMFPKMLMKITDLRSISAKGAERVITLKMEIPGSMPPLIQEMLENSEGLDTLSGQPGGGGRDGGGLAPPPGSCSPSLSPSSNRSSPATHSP
B5: Speckle-type POZ protein (Homo sapiens), O43791 (parent)
chain: B1 chain
partner: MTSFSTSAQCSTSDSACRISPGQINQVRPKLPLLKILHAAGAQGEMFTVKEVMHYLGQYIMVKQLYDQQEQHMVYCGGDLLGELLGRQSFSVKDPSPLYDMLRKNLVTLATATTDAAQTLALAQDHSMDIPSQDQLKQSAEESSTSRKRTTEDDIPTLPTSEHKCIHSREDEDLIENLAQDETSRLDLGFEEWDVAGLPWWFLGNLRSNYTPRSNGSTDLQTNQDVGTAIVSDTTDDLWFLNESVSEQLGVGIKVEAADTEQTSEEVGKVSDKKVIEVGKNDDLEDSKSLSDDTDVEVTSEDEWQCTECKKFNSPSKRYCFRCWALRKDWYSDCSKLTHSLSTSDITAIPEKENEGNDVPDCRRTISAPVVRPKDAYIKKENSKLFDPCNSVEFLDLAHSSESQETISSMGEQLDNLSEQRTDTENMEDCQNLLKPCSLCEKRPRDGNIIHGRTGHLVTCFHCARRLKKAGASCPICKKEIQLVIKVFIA
B6: Speckle-type POZ protein (Homo sapiens), O43791 (parent)
chain: B1 chain
partner: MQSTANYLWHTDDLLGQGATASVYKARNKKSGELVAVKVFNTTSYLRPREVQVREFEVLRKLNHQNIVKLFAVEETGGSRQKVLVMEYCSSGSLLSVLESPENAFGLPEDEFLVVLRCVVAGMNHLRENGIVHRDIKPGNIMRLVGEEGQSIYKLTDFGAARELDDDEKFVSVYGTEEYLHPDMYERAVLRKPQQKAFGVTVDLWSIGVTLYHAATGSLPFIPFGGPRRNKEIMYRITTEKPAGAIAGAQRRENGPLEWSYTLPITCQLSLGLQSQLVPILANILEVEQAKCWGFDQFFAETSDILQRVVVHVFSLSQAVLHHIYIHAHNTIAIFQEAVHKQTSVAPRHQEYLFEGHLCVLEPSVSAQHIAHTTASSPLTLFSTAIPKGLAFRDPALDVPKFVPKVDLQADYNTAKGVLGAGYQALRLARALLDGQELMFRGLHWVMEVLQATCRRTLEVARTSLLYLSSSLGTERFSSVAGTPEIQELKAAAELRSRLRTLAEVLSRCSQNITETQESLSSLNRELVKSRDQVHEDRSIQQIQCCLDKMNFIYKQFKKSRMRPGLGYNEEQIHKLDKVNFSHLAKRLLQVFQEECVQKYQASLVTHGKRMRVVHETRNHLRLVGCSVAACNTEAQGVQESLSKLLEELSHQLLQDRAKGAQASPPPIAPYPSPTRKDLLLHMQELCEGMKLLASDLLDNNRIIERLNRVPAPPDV

In one test the parent is B1. The following applies: with rasf5_human RASSF5, Q8WWW0.
Consider F133V, for which the “effect of a mutation on the interaction” value is recorded as “with no effect”.

In a further test the parent is B1. As to conditions: with rasf5_human RASSF5, Q8WWW0. The source holds these as a separate data set.
Regarding F133L, the “effect of a mutation on the interaction” value is “with no effect”.

In a further test the parent is B1. As to conditions: with rasf5_human RASSF5, Q8WWW0. This is another data set of the same source.
As to Y87C, the “effect of a mutation on the interaction” value is recorded as “with no effect”.

The variants in another test derive from B2. As to conditions: with nox3_human NOX3, Q9HBY0.
Regarding F102C, the “effect of a mutation on the interaction” value is recorded as “with no effect”.

Another test covers variants of B2. The following applies: with nox3_human NOX3, Q9HBY0. This is another data set of the same source.
F133L: the “effect of a mutation on the interaction” value is “with no effect”.

In a further test the parent is B2. The following applies: with nox3_human NOX3, Q9HBY0. The source holds these as a separate data set.
Consider F133V, for which the “effect of a mutation on the interaction” value is “with no effect”.

Variants of B2 are the subject of a further test. The following applies: with nox3_human NOX3, Q9HBY0. The source holds these as a separate data set.
In the case of Y87C, the “effect of a mutation on the interaction” value is recorded as “with no effect”.

Another test covers variants of B3. The following applies: with mre11_human MRE11, P49959.
On to F102C, for which the “effect of a mutation on the interaction” value is reported as “with no effect”.

A further test covers variants of B3. The following applies: with mre11_human MRE11, P49959. The source holds these as a separate data set.
For Y87C, the “effect of a mutation on the interaction” value is on record as “with no effect”.

The variants in another test derive from B3. As to conditions: with mre11_human MRE11, P49959. This is another data set of the same source.
As for F133V, the “effect of a mutation on the interaction” value is listed as “with no effect”.

Another test covers variants of B3. The following applies: with mre11_human MRE11, P49959. The source holds these as a separate data set.
Consider F133L, for which the “effect of a mutation on the interaction” value is “with no effect”.

The variants in a further test derive from B4. The following applies: with rara_human RARA.
With F102C, the “effect of a mutation on the interaction” value is reported as “with no effect”.

Variants of B4 are the subject of another test. The following applies: with rara_human RARA. The source holds these as a separate data set.
Take Y87C: the “effect of a mutation on the interaction” value is given as “with no effect”.

Variants of B4 are the subject of the next test. As to conditions: with rara_human RARA. This is another data set of the same source.
Regarding F133L, the “effect of a mutation on the interaction” value is “with no effect”.

Variants of B4 are the subject of another test. As to conditions: with rara_human RARA. The source holds these as a separate data set.
F133V: the “effect of a mutation on the interaction” value is “with no effect”.

In the next test the parent is B5. As to conditions: with mdm4_human MDM4, O15151.
For the variant F102C, the “effect of a mutation on the interaction” value is “with no effect”.

The variants in another test derive from B5. As to conditions: with mdm4_human MDM4, O15151. This is another data set of the same source.
Regarding Y87C, the “effect of a mutation on the interaction” value was “with no effect”.

In a further test the parent is B5. As to conditions: with mdm4_human MDM4, O15151. This is another data set of the same source.
For F133L, the “effect of a mutation on the interaction” value is “with no effect”.

Variants of B5 are the subject of another test. As to conditions: with mdm4_human MDM4, O15151. This is another data set of the same source.
As to F133V, the “effect of a mutation on the interaction” value is given as “with no effect”.

The variants in the next test derive from B6. The following applies: with ikke_human IKBKE.
As to F102C, the “effect of a mutation on the interaction” value is reported as “with no effect”.

In the next test the parent is B6. The following applies: with ikke_human IKBKE. The source holds these as a separate data set.
For the variant F133V, the “effect of a mutation on the interaction” value is on record as “with no effect”.

The variants in another test derive from B6. As to conditions: with ikke_human IKBKE. This is another data set of the same source.
With F133L, the “effect of a mutation on the interaction” value was “with no effect”.

The next test covers variants of B6. The following applies: with ikke_human IKBKE. This is another data set of the same source.
As for Y87C, the “effect of a mutation on the interaction” value is “with no effect”.
